Measurements taken from patent US20230080224A1 (AGENCY FOR SCIENCE TECHNOLOGY AND RESEARCH, published 2023).

Experiments:
[1] = biological target: T1, ALPI (screening and SPR/ELISA protein) (UniProt P09923 20-503, limits assumed); assay: screen of rabbit B-cell clones by ELISA and FACS
T1 sequence (looked up): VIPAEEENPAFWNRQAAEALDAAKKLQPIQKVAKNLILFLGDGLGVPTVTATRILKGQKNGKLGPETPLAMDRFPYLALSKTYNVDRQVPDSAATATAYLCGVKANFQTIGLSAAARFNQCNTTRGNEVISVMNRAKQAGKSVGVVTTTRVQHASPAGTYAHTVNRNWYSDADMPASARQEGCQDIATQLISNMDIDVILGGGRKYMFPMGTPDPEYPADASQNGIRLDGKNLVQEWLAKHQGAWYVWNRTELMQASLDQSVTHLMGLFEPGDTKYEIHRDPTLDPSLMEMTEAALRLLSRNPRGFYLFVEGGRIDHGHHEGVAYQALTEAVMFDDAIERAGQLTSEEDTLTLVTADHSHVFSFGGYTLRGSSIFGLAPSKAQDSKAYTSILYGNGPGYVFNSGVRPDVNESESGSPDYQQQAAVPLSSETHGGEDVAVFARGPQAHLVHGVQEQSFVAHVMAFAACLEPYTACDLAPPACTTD
Description: (§1) Specific clones were screened and identified by ELISA and high throughput flow cytometry (FIG. 3). Rabbit kidney cells were transfected with either truncated (for ELISA screen) or full-length (for FACS screen) ALPI and ALPPL2.

[2] = biological target: T2, human ALPPL2 (recombinant protein) (human, UniProt P10696 20-503, limits assumed); assay: screen of rabbit B-cell clones by ELISA and FACS
T2 construct: biotinylated where captured on streptavidin
Description: as §1

[3] = biological target: T3, human ALPPL2 (recombinant protein) (human, UniProt P10696 20-503); assay: BLI; single concentration
T3 chain: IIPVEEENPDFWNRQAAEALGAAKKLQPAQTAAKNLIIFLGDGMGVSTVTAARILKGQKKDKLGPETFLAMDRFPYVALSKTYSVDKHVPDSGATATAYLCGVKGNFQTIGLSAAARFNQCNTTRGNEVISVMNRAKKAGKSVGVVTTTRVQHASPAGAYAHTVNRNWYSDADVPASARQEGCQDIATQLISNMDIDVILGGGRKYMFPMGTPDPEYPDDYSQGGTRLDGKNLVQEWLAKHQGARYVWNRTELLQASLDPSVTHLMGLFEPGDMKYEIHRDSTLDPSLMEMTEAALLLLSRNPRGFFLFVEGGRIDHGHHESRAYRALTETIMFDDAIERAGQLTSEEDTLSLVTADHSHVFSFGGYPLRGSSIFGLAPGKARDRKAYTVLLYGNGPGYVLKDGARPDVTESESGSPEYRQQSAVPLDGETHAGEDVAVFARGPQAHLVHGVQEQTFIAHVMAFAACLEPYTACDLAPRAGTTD

B1: AB1C21 (antibody, V domains shown)
VH: QQQLVESGGGLVKPGASLTLTCKASGFSFSSGYDMCWVRQAPGKGLEWIACIYTGDGSTYYASWARGRFTISKTSSTTVTLQMTSLTAADTATYFCAREDVSSGDYTFNLWGPGTLVTVSS
VL: YDMTQTPASVEVTVGGTVTIKCQASEDIYSGLAWYQQKPGQRPKLLIYKASNLASGVPSRFSGSGSGTEFTLTISGVECADAATYYCQQGVTYSNVDNTFGGGTEVVVK
notes: Rabbit antibody cloned from a single B cell
- binding result [1]: no binding
- binding result [2]: binds
- Kd [3]: 1.4 nM

B2: AB1C15 (antibody, V domains shown)
VH: QSLEESGGDLVKPGASLTLTCTASGFSFSSSYYMCWVRQAPGKGLEWIACIYTTYGGTWYASWAKGRFTISKTSSTTVTLQMTSLTDADTATYFCARSSISDVTYFNLWGPGTLVTVSS
VL: DIVMTQTPASVEAAVGGTVTIKCQASQSISNYLAWYQQKPGQPPELLIYRASTLESGVPSRFKGSGSGTGFTLTISDLECADAATYYCQSYYDNNNYAFGGGTEVVVK
notes: as for B1
- binding result [1]: no binding
- binding result [2]: binds
- Kd [3]: 0.6 nM

B3: AB1C35 (antibody, V domains shown)
VH: QEQLKESGGDLVKPGASLTLTCTASGFTLSTYWVCWVRQAPGKGLEWIGCIDTVSSGDTYFASWAKGRFTGSKTSSTTVTLQMTSLTAADTATYFCARRTGSRWTLWGPGTLVTVSS
VL: QVLTQTPSSVSAGVGGTVTINCQASESVYNNNYLSWYQQKPGQPPKLLIYQASTLASGVPSRFKGSGSGTQFTLTISDVQCDDAATYYCLGAFVSNGWYFAFGGGTEVVVK
notes: as for B1
- binding result [1]: no binding
- binding result [2]: binds
- Kd [3]: 4.1 nM

B4: AB1C18 (antibody, V domains shown)
VH: QSLEESGGDLVKPGASLTLTCTASGFSFSSYWTCWVRQAPGKGLEWLGCTDGGSSGDTYYATWAKGRVAISKTSSTTVTLQVTSLTAADTATYFCARNLITWDLWGPGTLVTVSS
VL: IVMTQTPSSKSVPVGDTVTINCQASESVYNNNQLSWFQQKPGQPPKLLIYWASKLASGVPSRFKGSGSGTQFTLTISDVVCDDAATYYCAGYKSSITDGNAFGGGTEVVVK
notes: as for B1
- binding result [1]: no binding
- binding result [2]: binds
- Kd [3]: 1.4 nM

B5: AB1C39 (antibody, V domains shown)
VH: QSLEESGGDLVKPGASLTLTCTASGFSFSSSYYMCWVRQAPGKGLEWIACIYAGSSGGTYYASWAKGRFTISKTSSTTVTLQMTSLTAADTATYFCARAFSYYYSDGYTGYAYGLWGPGTLVTVSS
VL: DIVMTQTPASVEAAVGGTVTIKCQASQSISSYLAWYQQKPGQPPKLLIYRASTLASGVPSRFKGSGSGTQFTLTISDLECADAATYYCQGAYYSSSSSYGFGGGTEVVVK
notes: as for B1
- binding result [1]: no binding
- binding result [2]: binds
- Kd [3]: 2 nM

B6: AB1C34 (antibody, V domains shown)
VH: QSLEESGGDLVKPGASLTLTCTASGFDFSSNGMCWVRQAPGKGLEWIACIYVDSSDSTYYASWVNGRFTISKTSSTTVTLQMTSLTAADTATYFCARGYGYVGSAMDLWGQGTLVTVSS
VL: NIVMTQTPSPVSGAVGGTVTIKCQASQSISNELAWFQQKPGQRPKLLIYGASTLESGVPSRFSGSGSGTEFTLTISDLECADAATYYCQSAYYSSSSSYANTFGGGTEVVVK
notes: as for B1
- binding result [1]: no binding
- binding result [2]: binds

B7: AB1C23 (antibody, V domains shown)
VH: QSLEESGGDLVKPGASLTLTCTASGFSFSSTYYMCWVRQAPGKGLEWIACIYTGSTGSTYYASWAKGRFTGSKTSSTTVTLQMTSLTAADTATYFCARGDYTYAYAGGAHVTNYYFDLWGPGTLVTVSS
VL: LVMTQTPSSVSAAVGGTVTINCQASQNIYSNLAWYQQKPGQRPKLLIFGASNLESGVPSRFKGSGSGTEFTLTISDLECDDAATYYCQTADYSSSTDWGAFGGGTEVVVK
notes: as for B1
- binding result [1]: no binding
- binding result [2]: binds

B8: AB1C17 (antibody, V domains shown)
VH: QEQLKESGGDLVKPGASLTLTCTASGFTLSTYWVCWVRQAPGKGLEWIGCIDTVSSGDTYFASWAKGRFTGSKTSSTTVTLQMTSLTAADTATYFCARRTGSGWTLWGPGTLVTVSS
VL: LVMTQTPSPVSAAVGGTVTISCQSSQSVYNNNYLAWFQQNPGQPPKLLIYWASKLASGVPSRFKGSGSGTQFTLTISDVQCDDAATYYCLGAYVSNGWYFAFGGGTEVVVK
notes: as for B1
- binding result [1]: no binding
- binding result [2]: binds

B9: AB1C28 (antibody, V domains shown)
VH: QEQLKESGGDLVKPGASLTLTCTASGFTLSTYWVCWVRQAPGKGLEWIGCIDTVSSGDTYFASWAKGRFTGSKTSSTTVTLQMTSLTAADTATYFCARRTGSGWTLWGPGTLVTVSS
VL: LVMTQTPSPVSAAVGGTVTISCQSSQSVYNNNYLAWFQQNPGQPPKLLIYWASKLASGVPSRFKGSGSGTQFTLTISDVQCDDAATYYCLGAYVSNGWYFAFGGGIEVVVK
notes: as for B1
- binding result [1]: no binding
- binding result [2]: binds

B10: AB1C32 (antibody, V domains shown)
VH: QEQLEESGGDLVKPGGTLTLTCKASGIDFSSDYYMCWVRQAPGKGLEWIACIYTGSSDDTYYASWAKGRFTISKTSSPTVALQMTSLTAADTATYFCARGGYGGKDLWGPGTLVTVSS
VL: VVMTQTPASVEAAVGGTVTIKCQASQSIGSLLAWYQQKPGQPPNLLIYWASTLASGVPSRFKGSGSGTEFTLTISDLECDDAATYYCQCTYGSSGSSSYLNAFGGGTEVVVK
notes: as for B1
- binding result [1]: no binding
- binding result [2]: binds

B11: AB2C103 (antibody, V domains shown)
VH: QSLEESGGDLVKPGASLTLTCTASGFDFSSYYWICWVRQAPGKGLEWIACIYGGSSGSTYYATWAKGRFTISETSSTTVTLQMTSLTAADMATYFCARSLYTWRYADYAASTLNLWGPGTLVTVSS
VL: AVLTQTPSPVSAAVGGTVSISCQSSQSVYNVNLLAWYQQKPGQPPKLLIYETSKLESGVPSRFSGSGSGTQFTLTISDVQCDDAATYYCAGGYSSSKDNSFGGGTEVVVK
notes: as for B1
- binding result [1]: no binding
- binding result [2]: binds

B12: AB2C128 (antibody, V domains shown)
VH: QSLEESGGDLVKPGASLTLTCTASGFSFSSSYWIYWVRQAPGKGLEWIACIYTASRGSIYYASWTKGRFTISKTSSTTVTLQMTSLTAADTATYFCARGPDYTYGYIGDALTRLDLWGQGTLVTVSS
VL: AVLTQTPSPVSAAVGGTVSISCQSSQSVYDNNWLAWYQQKAGQPPKLLIYAASTLSSGVPSRFKGSGSGIEFTLTISDVQCDDAATYYCAGGYSSTSDIEDNTFGGGTEVVVK
notes: as for B1
- binding result [1]: no binding
- binding result [2]: binds

B13: AB1C11 (antibody, V domains shown)
VH: QSLEESGGDLVKPGASLTLTCKASGFTISSIWICWVRQAPGKGLEWIACIYAGSDGGSYYASWARGRFTISKTSSTTVTLQMTSLTAADTATYFCARASNSWQYGYAGYGNYKDYFNLWGPGTLVTVSS
VL: FELTQTPSSVEAVVGGTVTINCQASESISNLLAWYQQKSGQPPKVLIYKASALPSGVSSRFKGSGSGTEFTLTISDLECADAATYYCQSYYGSSDTGNTFGGGTEVVVK
notes: as for B1
- binding result [1]: no binding
- binding result [2]: binds

B14: AB2C135 (antibody, V domains shown)
VH: QSLEESGGDLVKPGASLTLTCTASGFSFSSSYWICWVRQAPGKGLEWIACIYTASRDSIYYASWAKGRFTISKTSSTTVTLQMTSLTAADTATYFCARGPYYSYAYIGDALTRLDLWGQGTLVTVSS
VL: AVLTQTPSPVSAAVGGTVSISCQSSQSVYDNNWLAWYQQKPGQPPKLLIYEASKLASGVPSRFKGSGSGTQFTLTISGVQCDDASTYYCAGGYSSSSDIEDNTFGGGTEVVVK
notes: as for B1
- binding result [1]: no binding
- binding result [2]: binds

B15: AB1C14 (antibody, V domains shown)
VH: QSLEESGGDLVKPGASLTLTCTASGFSFSSNYWICWVRQAPGKGLEWIACIATGSSGSTYYASWAKGRFTISKTSSTTVTLQMTSLTAADTATYFCARGEYTYGYVEYAIVTQYYFDLWGPGTLVTVSS
VL: FEMTQTPSSVSAAVGGTVTINCQASQNIYSNLAWYQQKPGQRPKLLIYGASNLESGVPSRFKGSGSGTEYTLTISDLECDDAATYYCQSADYIGSAYNAFGGGTEVVVK
notes: as for B1
- binding result [1]: no binding
- binding result [2]: binds

B16: AB1C13 (antibody, V domains shown)
VH: QEQLEESGGDLVKPEGSLTLTCTASGFSFSWICWVRQAPGKGLEWIACIYAGSSAKTYYASWAKGRFTISKASSTTVTLQMTSLTAADTATYFCARASNYYRYGVAGYADYTGYFNLWGPGTLVTVSS
VL: FELTQTPASVEAAVGGTVTIKCQASQSISSWLAWYHQKPGQRPKLLIYGTSTLASGVPSRFKGSGSGTEFTLTISDLECADAATYYCQNYGGSSSGDAFGGGTEVVVK
notes: as for B1
- binding result [1]: no binding
